The data set concerns the molecule itself. Kind of data set: SEC; Superdex 75 10/300 GL, 50 mM Tris-HCl pH 7.5, flow 0.5 mL/min; protein at 2 µg/µL, 150 to 300 µL; column calibrated with LMW Gel Filtration kit.

B1: VvROMT variant W20A (enzyme, Vitis vinifera, UniProt B6VJS4 1-357, looked up)
chain: MDLANGVISAELLHAQAHVANHIFNFIKSMSLKCAIQLGIPDIIHNHGKPMTLPELVAKLPVHPKRSQCVYRLMRILVHSGFLAAQRVQQGKEEEGYVLTDASRLLLMDDSLSIRPLVLAMLDPILTKPWHYLSAWFQNDDPTPFHTAYERSFWDYAGHEPQLNNSFNEAMASDARLLTSVLLKEGQGVFAGLNSLVDVGGGTGKVAKAIANAFPHLNCTVLDLSHVVAGLQGSKNLNYFAGDMFEAIPPADAILLKWILHDWSNEECVKILKRCREAIPSKENGGKVIIIDMIMMKNQGDYKSTETQLFFDMTMMIFAPGRERDENEWEKLFLDAGFSHYKITPILGLRSLIEVYP
notes: resveratrol O-methyltransferase (VvROMT), Vitis vinifera, GenBank FM178870, with W20A; made by Gibson Assembly on pET25-GB1-ROMT; source: E. coli BL21 (DE3), purified (IMAC HisTrap FF, TEV cleavage, second IMAC); not shown: His tag (on GB1), N-terminal, cleaved; GB1, N-terminal, cleaved
Broadly, the stoichiometry N is a count of units in the complex or per binding partner. For B1, the “stoichiometry N” value is 2.

B2: VvROMT variant F24A (enzyme, Vitis vinifera, UniProt B6VJS4 1-357, looked up)
chain: MDLANGVISAELLHAQAHVWNHIANFIKSMSLKCAIQLGIPDIIHNHGKPMTLPELVAKLPVHPKRSQCVYRLMRILVHSGFLAAQRVQQGKEEEGYVLTDASRLLLMDDSLSIRPLVLAMLDPILTKPWHYLSAWFQNDDPTPFHTAYERSFWDYAGHEPQLNNSFNEAMASDARLLTSVLLKEGQGVFAGLNSLVDVGGGTGKVAKAIANAFPHLNCTVLDLSHVVAGLQGSKNLNYFAGDMFEAIPPADAILLKWILHDWSNEECVKILKRCREAIPSKENGGKVIIIDMIMMKNQGDYKSTETQLFFDMTMMIFAPGRERDENEWEKLFLDAGFSHYKITPILGLRSLIEVYP
notes: resveratrol O-methyltransferase (VvROMT), Vitis vinifera, GenBank FM178870, with F24A; made by Gibson Assembly on pET25-GB1-ROMT; source: E. coli BL21 (DE3), purified (IMAC HisTrap FF, TEV cleavage, second IMAC); not shown: His tag (on GB1), N-terminal, cleaved; GB1, N-terminal, cleaved
Take B2: the “stoichiometry N” value was 2.

The values above are taken from PMC8122247, “Rational Design of Resveratrol O-methyltransferase for the Production of Pinostilbene” (International Journal of Molecular Sciences, 2021).
